From US20180022822A1 (MABIMMUNE DIAGNOSTICS, published 2018)

Legend:
[1] = target: T1, cFAP (mixture of three FAP peptides) (human); test: direct ELISA: coated mixture of three FAP peptides (cFAP)
T1 construct: A mixture of three separate peptides coated together, not a complex; The three chains are the three components; also called directly coated FAP peptides mixture
T1 peptide 1: HYIKDTVENAIQITS
T1 peptide 2: GWSYGGYVSSLALAS
T1 peptide 3: QVDFQAMWYSDQNHGL

[2] = target: T2, recombinant human Dipeptidyl Peptidase 8 (DPP8) (human, UniProt Q6V1X1 1-898, limits assumed); test: ELISA: enzyme held on the plate by an anti-tag antibody, HRP-labelled NI-206.82C2 titrated [continued) E]
T2 construct: Bought active enzyme; also called rhDPP8; BPS Bioscience 80080
T2 sequence (Q6V1X1 whole entry): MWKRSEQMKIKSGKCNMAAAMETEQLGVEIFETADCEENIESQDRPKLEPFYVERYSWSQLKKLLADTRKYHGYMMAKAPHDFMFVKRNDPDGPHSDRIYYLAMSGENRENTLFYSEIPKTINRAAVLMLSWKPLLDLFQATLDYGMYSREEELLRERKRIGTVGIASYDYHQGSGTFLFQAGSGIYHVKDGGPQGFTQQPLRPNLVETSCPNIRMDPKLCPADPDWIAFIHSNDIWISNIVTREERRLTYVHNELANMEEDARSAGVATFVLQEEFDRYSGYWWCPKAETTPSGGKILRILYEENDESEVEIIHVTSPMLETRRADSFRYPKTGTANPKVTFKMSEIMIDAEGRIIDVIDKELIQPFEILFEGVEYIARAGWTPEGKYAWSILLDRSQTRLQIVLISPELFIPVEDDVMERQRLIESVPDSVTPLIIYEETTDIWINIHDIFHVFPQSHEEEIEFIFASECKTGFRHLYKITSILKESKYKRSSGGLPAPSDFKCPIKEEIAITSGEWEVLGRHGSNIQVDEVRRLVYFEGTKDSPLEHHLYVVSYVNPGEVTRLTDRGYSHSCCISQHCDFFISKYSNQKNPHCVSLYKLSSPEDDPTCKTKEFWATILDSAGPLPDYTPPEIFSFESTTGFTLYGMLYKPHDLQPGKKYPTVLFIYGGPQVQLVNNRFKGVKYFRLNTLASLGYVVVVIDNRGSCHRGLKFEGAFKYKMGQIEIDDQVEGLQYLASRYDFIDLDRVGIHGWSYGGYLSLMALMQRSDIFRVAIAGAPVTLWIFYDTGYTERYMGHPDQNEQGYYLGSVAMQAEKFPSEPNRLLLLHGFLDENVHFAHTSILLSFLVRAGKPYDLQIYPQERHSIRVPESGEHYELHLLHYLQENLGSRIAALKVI
Text: Active recombinant human enzymes evaluated in this assay include: Fibroblast Activation Protein (FAP; Sino Biologicals, 10464-H07H), Dipeptidyl Peptidase IV (DPPIV, BPS Bioscience 80040), Dipeptidyl Peptidase 8 (DPP8, BPS Bioscience 80080), Dipeptidyl Peptidase 9 (DPP9, BPS Bioscience 80080), and Prolyl Oligopeptidase/Prolyl Endopeptidase (POP/PREP, BPS Bioscience 80105). Each recombinant peptidase was expressed with a purification tag, and attached to the 96 well ELISA plate using either a mouse anti-Histidine antibody (CloneTech), or a mouse anti-Glutathione S-transferase (GST, Sino Biologicals, 111213-MM02) tag antibody. […] H-Gly-Pro-AMC (ATT Bioquest, 13450) was used to validate the presence and activity of DPP4, DPP9, and DPP8. Z-Gly-Pro-AMC (BaChem, 11145) was used to evaluate the activity of FAP and POP/PREP. […] Following a washing step, bound antibody was detected using 3,3′,5,5′-Tetramethylbenzidine (TMB) substrate.

[3] = target: T3, recombinant human Fibroblast Activation Protein (FAP) with N-terminus 6x histidine tag (human, UniProt Q12884 26-760); test: SPR (ProteOn): rhuFAP amine-coupled on a GLC chip, antibody injected at 106.7, 53.3, 26.7, 13.3 and 6.7 nM
T3 construct: Bought protein; also called rFAP; rhFAP
T3 sequence: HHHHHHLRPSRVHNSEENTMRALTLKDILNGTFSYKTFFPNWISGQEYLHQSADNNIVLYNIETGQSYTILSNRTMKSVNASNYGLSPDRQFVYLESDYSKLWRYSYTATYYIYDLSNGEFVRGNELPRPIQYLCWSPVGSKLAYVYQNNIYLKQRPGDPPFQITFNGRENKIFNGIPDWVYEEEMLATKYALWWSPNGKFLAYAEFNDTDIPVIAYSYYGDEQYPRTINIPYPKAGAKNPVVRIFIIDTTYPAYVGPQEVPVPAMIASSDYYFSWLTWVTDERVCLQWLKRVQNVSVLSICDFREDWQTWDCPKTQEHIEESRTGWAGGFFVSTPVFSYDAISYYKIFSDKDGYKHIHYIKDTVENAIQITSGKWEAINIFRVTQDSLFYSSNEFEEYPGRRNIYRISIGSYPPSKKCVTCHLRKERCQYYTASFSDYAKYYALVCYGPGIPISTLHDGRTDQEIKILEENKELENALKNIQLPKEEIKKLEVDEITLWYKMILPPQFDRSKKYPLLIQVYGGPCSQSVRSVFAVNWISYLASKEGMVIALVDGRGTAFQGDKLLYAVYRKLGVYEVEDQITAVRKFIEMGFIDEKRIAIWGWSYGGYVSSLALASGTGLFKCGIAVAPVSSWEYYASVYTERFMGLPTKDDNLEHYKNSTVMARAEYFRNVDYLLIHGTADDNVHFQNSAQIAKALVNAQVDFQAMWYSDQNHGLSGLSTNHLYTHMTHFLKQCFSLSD
Method: This was achieved by varying the concentration of the activation reagents used in each channel. Three activation solutions were prepared using a threefold serial dilution of a stock mixture containing 0.4 M EDC+0.1 M sulfo-NHS and injected for 360 s. Then rhuFAP at 2.5 μg/ml in coupling buffer (10 mM HEPES, 150 mM NaCl, 3.4 mM EDTA, 0.005% Tween 20, pH 5.2) was coupled for 1020 s at 25 μL/min. Excess reactive esters were blocked for 600 s with 1 M ethanolamine hydrochoride. […] serial dilution of […] starting at 16 μg/mL (106.7 nM) was injected for 400 s at 60 μL/min. A single injection delivered a full concentration series, using buffer to complete a row of six samples and provide an in-line blank for double-referencing the response data. Association and dissociation phases were measured for 400 s and 3600 s, respectively.

[4] = target: T4, recombinant human Dipeptidyl Peptidase IV (DPPIV) (human, UniProt P27487 29-766, limits assumed); test: sandwich ELISA: F19 coated as capture antibody, homologue titrated, HRP-labelled NI-206.82C2 as detection antibody; no signal means that no F19/antigen/82C2 sandwich formed
T4 construct: Bought active enzyme; also called rhDPPIV; DPP4
T4 sequence (P27487 29-766 limits assumed): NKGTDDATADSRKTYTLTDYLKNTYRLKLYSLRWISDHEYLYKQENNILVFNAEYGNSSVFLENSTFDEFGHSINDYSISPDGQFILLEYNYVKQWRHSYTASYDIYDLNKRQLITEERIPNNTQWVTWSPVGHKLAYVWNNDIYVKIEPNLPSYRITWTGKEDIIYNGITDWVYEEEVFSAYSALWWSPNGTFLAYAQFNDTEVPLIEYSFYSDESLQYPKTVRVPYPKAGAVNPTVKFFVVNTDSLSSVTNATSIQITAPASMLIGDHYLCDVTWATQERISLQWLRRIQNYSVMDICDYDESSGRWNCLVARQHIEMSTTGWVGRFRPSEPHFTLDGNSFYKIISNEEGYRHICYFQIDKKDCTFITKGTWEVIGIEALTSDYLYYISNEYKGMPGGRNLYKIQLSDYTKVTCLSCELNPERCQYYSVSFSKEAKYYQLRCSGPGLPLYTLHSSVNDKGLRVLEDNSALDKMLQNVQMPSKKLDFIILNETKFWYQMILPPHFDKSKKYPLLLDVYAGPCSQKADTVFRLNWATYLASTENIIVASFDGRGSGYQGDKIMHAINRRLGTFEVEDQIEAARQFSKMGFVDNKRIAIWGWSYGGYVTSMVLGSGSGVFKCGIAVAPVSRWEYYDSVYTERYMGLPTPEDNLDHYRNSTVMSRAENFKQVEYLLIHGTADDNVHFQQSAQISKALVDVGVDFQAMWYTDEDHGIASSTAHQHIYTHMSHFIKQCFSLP
Method: The coating solution was removed and the plate was blocked with 40 μL 2% BSA in PBS blocking buffer for 1 h at room temperature and then discarded. 30 uL sample solution was then added. Sample solutions included recombinant human FAP standard (FIG. 17A), human serum at varying dilutions (FIG. 17B), FAP homologues (FIG. 17C), serum samples from healthy patients (FIGS. 18 and 19), serum samples patients with metastatic colorectal cancer (FIG. 18), serum samples from patients with cardiovascular disease (FIG. 19), sodium citrate plasma samples from healthy patients (FIG. 20), and sodium citrate samples from patients with symptomatic carotid atherosclerotic plaques (FIG. 20). Sample solutions were added at a total volume of 30 μL. The plate was washed three times with 40 μL PBS and blotted dry. […] The plate was then washed again three times with 3×PBS and blotted dry. 30 μL TMB (3,3′,5,5′-Tetramethylbenzidine) solution was then added to each well and allowed to develop for 5-10 minutes at room temperature. The reaction was then stopped by the addition of 30 μL 1M H2SO4, and absorbance at 450 nm was read with a plate reader.

binding result [1]: no binding
binding result [2]: no binding
Kd [3]: 5.08 nM
koff [3]: 0.000861 s⁻¹
kon [3]: 173000 M⁻¹ s⁻¹
binding result [4]: no binding (tested: 250 ng/mL)
B1: NI-206.82C2 (antibody, V domains shown)
VH: QVQLQQSGPGLVKPSQTLSLTCAISGDSVSSNSVTWNWIRQSPSRGLEWLGRTYYRSKWYNDYAVSVKGRITINPDTSKNQFYLQLKSVTPEDAAVYYCARDSSILYGDYWGQGTLVTVSS
VL: QAVLTQPSSLSASPGASASLTCTLPSGINVGTYRIFWFQQKPGSPPQYLLSYKSDSDNHQGSGVPSRFSGSKDASANAGILLISGLQSEDEADYYCMIWHSSAWVFGGGTKLTVL
notes: Recombinantly expressed as complete human IgG1 with a lambda light chain; HRP-labelled in the homologue and sandwich ELISAs, Cy5-labelled in flow cytometry; also called HRP-labelled 82C2; Cy5 labelled 82C2
